In US20070167369A1 (published 2007):

Target: HUVECs
Assay: cell binding (Scatchard, Abs. 490 nm)

B1: Regenin (other)
chain: MGTVMDVLKGDNRFSMLVAAIQSAGLTETLNREGVYTVFAPTNEAFRALPPRERSRLLGDAKELANILKYHIGDEILVSGGIGALVRLKSLQGDKLEVSLKNNVVSVNKEPVAEPDIMATNGVVHVITNVLMGTVMDVLKGDNRFSMLVAAIQSAGLTETLNREGVYTVFAPTNEAFRALPPRERSRLLGDAKELANILKYHIGDEILVSGGIGALVRLKSLQGDKLEVSLKNNVVSVNKEPVAEPDIMATNGVVHVITNVLMGTVMDVLKGDNRFSMLVAAIQSAGLTETLNREGVYTVFAPTNEAFRALPPRERSRLLGDAKELANILKYHIGDEILVSGGIGALVRLKSLQGDKLEVSLKNNVVSVNKEPVAEPDIMATNGVVHVITNVLMGTVMDVLKGDNRFSMLVAAIQSAGLTETLNREGVYTVFAPTNEAFRALPPRERSRLLGDAKELANILKYHIGDEILVSGGIGALVRLKSLQGDKLEVSLKNNVVSVNKEPVAEPDIMATNGVVHVITNVL
- Kd: 1 µM
